{
  "source": "the nanobody polyreactivity screen of Harvey et al. (2022)",
  "data": [
    {"assay": "yeast display, Sf9 membrane polyspecificity reagent, FACS + sequencing; frameworks hold sequencing errors", "procedure,_shortened": "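Galactose-induced (36–48 hours) yeast carrying a synthetic nanobody display library were exposed to 10% biotinylated, detergent-solubilized Sf9 membrane reagent at 4 °C for 1 hour. FACS followed streptavidin microbead enrichment, using low and high (top ~1%) gates for expression (anti-HA) and reagent binding (streptavidin). Colony PCR, MiSeq 2 × 250 sequencing and CDR-length filtering followed. Labels for polyreactivity reflect the gate of origin.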", "values": [
      {"sequence": "QVQLVESGGGLVQAGGSLRLSCAASGRIISSYAMGWYRQAPGKERELVAAITSSGGSTYYADSVKGRFTISRDNAKNTVYLQMNSLKPEDTAVYYCAARVFARYYTAYGVETRREEDYWGQGTQVTVSS", "polyreactivity (PSR sort gate)": "low polyreactivity"},
      {"sequence": "QVQLVESGGGLVQAGGSLRLSCAASGSTFYAYTMGWYRQAPGKEREFVAAISKSGGSTYYADSVKGRFTISRDNAKNTVYIQMNSLKPEDTAVYYCAARVYYRYDWGQGTQVTVSS", "polyreactivity (PSR sort gate)": "high polyreactivity"},
      {"sequence": "QVQLVESGGGLVQAGGSLRLSCAASGSTFAPYAMGWYRQAPGKERELVAAITWRGGSTYYADSVKGRFTISRDNAKYTVYLQMNSLKPEDTAVYYCNADGYVPDYEYWGQGTQVTVSS", "polyreactivity (PSR sort gate)": "high polyreactivity"},
      {"sequence": "QVQLVESGGGLVQAGGSLRLSWAASGRIFVLNAMGSYRQAPGKERELVAAISTGASTNYADSVKGRFTISRDNAKNTVYLKMNSLTPEATAVYYCAAAPGSSGARTSYILAYDYWGLGTQVTVSS", "polyreactivity (PSR sort gate)": "low polyreactivity"},
      {"sequence": "QVQLVESGGGLVQAGGSLRLICAASGRTFTLNVMGWYRQAPGKETEFVATITWGGGRTYYADSVKGRFTISRDNAKNTVYLQMNSLKPVDTAVYYCAGQLAKTIRGRGYNSWGQGTQVTVSS", "polyreactivity (PSR sort gate)": "low polyreactivity"},
      {"sequence": "QVQLVESGGGLVHAGGSLRLSCAASGSIFDYYAMGWYRQAPGKERELVAAISTSTSSTYYADSVKGRFTISRDNAKNTVCLQMNSLKPEDTAVYYCAAEGESQPESPGYDYWGQGTQVTVSS", "polyreactivity (PSR sort gate)": "low polyreactivity"},
      {"sequence": "QVQLVESGGGLVQAGGSLRLSCAASGFTFTMNAMGWYRQAPGKERELVAGISSGGSTNYADSVKGRFTLSRDNEKNTVYLQMNSLKPEDTAVYYCAADRGYVWRYDYWGQGTQVTVSS", "polyreactivity (PSR sort gate)": "low polyreactivity"},
      {"sequence": "QVQLVESGGGLVQAGGSLRLSCAASGRIFDLNAMGWYRQAPGKERELVAVITGSGGSTYYADSVKGRFTISRDNAKNTVYLQMNSLKPEDTAVYYCNAYTQQYRSYGYWGQGTQVTVSS", "polyreactivity (PSR sort gate)": "low polyreactivity"},
      {"sequence": "QVQLVESGGGLVQAGGSLRLSCAASGRTFRGNAIGWYRQAPGKERELVAAIRWNGGSTYYADSVKGRFTISRDNAKNTVYLQMNSLKPEDTAVYYCAVSYWYSRYDYWGQGTQVTVSS", "polyreactivity (PSR sort gate)": "high polyreactivity"},
      {"sequence": "QVQLVESGGGLVQAGGSLRLSCAASGSTFQYNAMGWYRQAPGKEREFVAAITNGGGSTYYADSVKGRFTISRDNAKNTVYLQMNSLKPEDTAVYYCNARFRYARYSQRYDYWGQGTQVTVSS", "polyreactivity (PSR sort gate)": "high polyreactivity"},
      {"sequence": "QVQLVESGGGLVQAGGSLRLSCAASGSIFWANAMGWYRQAPGKERELVAAISSSGGGTYYADSVKGRFTISRDNAKNTVYLQMNSLKPVDTAVYYCNKLRLDYYEQGDYWGQGSQVTVSS", "polyreactivity (PSR sort gate)": "high polyreactivity"},
      {"sequence": "QVQLVESGGGLVQAGGSLRLSCAASGNTFDGYDMGWYRQAPGKERELVAAITNTGASTYYADSVKGRFTISRDNAKNTVYLQMNSLKPEDTAVYYCTAQDSYPEDRHGMSYWGQGTQVTVSS", "polyreactivity (PSR sort gate)": "low polyreactivity"},
      {"sequence": "QGQLVESGGGLVQAGGSLRLSCAASGSTFLHYAMGWYRQAPGKERELVAAISRRGGRTYYADSVKGRFTISRDNAKNTVYLQMNRLKPEDTAVYNCAVDGIRDGYWIFYYWGQGTQVTVSS", "polyreactivity (PSR sort gate)": "low polyreactivity"},
      {"sequence": "QVQLVESGGGLVQAGGSLRLSCAASGRTFEYYAMGWYRPAPGKERELVAAITWSVGSTYYADSVKGRFTISRDNAKNTVYLQMNSLKPEDTAGYYCAVDVVYTWPFPVEYYYWGQGTQVTVSS", "polyreactivity (PSR sort gate)": "high polyreactivity"},
      {"sequence": "QVQLVESGRGLVQAGGSLRLSCAASGSIFDKYAMGWDRQAPGKEREMVAAISYSGGRTYYADSVKGRFTISRDNAKNTVYLQMNCLNPEDTAVYYCNAVGSVITDFGYWGQGTQVTVSS", "polyreactivity (PSR sort gate)": "low polyreactivity"},
      {"sequence": "HVQLVESGGGLVQAGGSLRLSCAASGFTFGYYAMGWYRQAPGKERELVAAISSSGGSTYYADSVKGRFTISRDNAKNTVYLQMNSLKPEDTAVYFCAVVVFSRVYRYFTSDYWGQGTQVTVSS", "polyreactivity (PSR sort gate)": "high polyreactivity"},
      {"sequence": "QVQLVESGGGLVQAGGSLRLSCAASGRTFEGNAMGWYRQAPGKERELVAAISTSGGRTYYADSVKGRFTISRDNAKNTVYLQMNSLKPDDTAVYYCAVDHYSSYEYWGQGTQVTVSS", "polyreactivity (PSR sort gate)": "low polyreactivity"},
      {"sequence": "QDQLVESGGGLVQAGCSLRLTCAASGSTFSYYAMGWYRQAPGKERELVADISWSGGSTYYADSVKGRFTISRDNAKNTVYLQMNSLKAAHTAVYYCAARGGSVLRYGKYYYWGQGTQVTVSS", "polyreactivity (PSR sort gate)": "low polyreactivity"},
      {"sequence": "QVQLVESGGGLVQAGGSLRLSCAASGRTFPYNAMGWYRQAPGKERELVAAISYSGGRTYYADSVKGRFTISRDNAKNTVYLLMNSLKPEDTAVYYCNALGSGREDDYWGQGTQVTVSS", "polyreactivity (PSR sort gate)": "high polyreactivity"},
      {"sequence": "QVQLVESGGGLVQAGGSLRLSCAASGSIVYYYAMGWYRQAPGKERELVAAITRSGGSTYYADSVKGRFTISRDNAKNTVYLQMNSLKPEDTSVYYCAKDAHAYRDLDYWGQGTQVTVSS", "polyreactivity (PSR sort gate)": "low polyreactivity"},
      {"sequence": "QVQLVESGGGLVQAGGSLRLSCAASGSTFSSSAMGWYRQAAGKERELVAAITSSGGSPYYADSVKGRLTISRDNAKNTVYLQMNSLKPEDTAVYYCAAADVIFWLYYYWGQGTQLTVSS", "polyreactivity (PSR sort gate)": "low polyreactivity"},
      {"sequence": "QVQLVESGGGLVQAGGSLRLSSAAYGRIFAANANGWYRQAPGKERELVAAISSGGSTNYADSVKGRFTISRDNAKNTVYLPMISLKPEDTAVYYCAADASWYAYCYYYWGQGTQVTVSS", "polyreactivity (PSR sort gate)": "low polyreactivity"},
      {"sequence": "QVQLVESGGGLVQAGGSLRLSCAASGLTFPHNAMGWYRQAPGKERELVAAITSSGGSTYYADSVKGRFTISRDNAKNTVYIQMNSLKPEDTAVYYCAAKRKPRPSYRYGYWGQGTQVTVSS", "polyreactivity (PSR sort gate)": "high polyreactivity"},
      {"sequence": "QDQLVESGGGLVQAGGSLRLSCSATGRIFRSYAMGWYRQAPGKERELVASITWRGSSTYYADSVKGRFTISRDNAKNTVYLQMNSRKPEDTAVYYCAKEGYLYLWRYDYWGQGTQVTVSS", "polyreactivity (PSR sort gate)": "high polyreactivity"},
      {"sequence": "QVQLVESGGGLVQAGGSLRLSCAASGSIFFSYAMGWYRQAPGKERELVATITTSGGRTRYADSVKGRFTISRDNAKNTVYLQMNSLKPEETAVYYCAAAPWDAPWSGYEYWGQGTQVTVSS", "polyreactivity (PSR sort gate)": "high polyreactivity"},
      {"sequence": "QVKLVESGGGLVQAGGSLRLSCAASGFTFEYYAMGWYRQAPGKERELVAAIRSDSGTNYADSVKGRFTISRDNAKNTVYLQMNSLKPEDTAVYYCAAPTVVLIDYDYWGQGTQVTVSS", "polyreactivity (PSR sort gate)": "low polyreactivity"},
      {"sequence": "QVQLVESGRGLVQAGGSLRLSCAASGSTFRYYAMGWYRQAPGKERELVAAISYSGGSTYYADSVKGRFTISRDNAKNTVYLQMNSLKPEDTAVYYCASSWYSIGKRYYYWGQGTQVTVSS", "polyreactivity (PSR sort gate)": "high polyreactivity"},
      {"sequence": "QDQLVESGGGLVQAGGSLRLSCAASGIIFDDNTMGWYRQAPGKERELVAAISSSGGSTYYADSVKGRFTISRDNAKNTVYLQMNSLKPEDTAVYYCAAAVYYTYPYIVYRNYPEFDYRGQGTQVTVSS", "polyreactivity (PSR sort gate)": "low polyreactivity"},
      {"sequence": "QVQLVESGGGLVQAGGSLRLSCAASGFTFPRNVMGWYRQAPGKERELVAAISRSGSRTSYADSVKGRFTISRDNAKNTVYLQMNSVKPEDTAVYYCATSSGVGGYAAYYYWGQGTQVTVSS", "polyreactivity (PSR sort gate)": "high polyreactivity"},
      {"sequence": "QVQLLESGGGLVQAGGSLRISCAASGIFDPNAMGWYIQAPGKERELVAAITSGGSTNYADSVKGRFTISRDNAKNTFYLQMNSLKPEDTAVYYCNEDYDRPDFYFWVQGTQVTVSS", "polyreactivity (PSR sort gate)": "low polyreactivity"},
      {"sequence": "QVQLVESGGALVQAGGSHRLSCAASGRIFAGNAMGWYRMAPGKEMELLAAISKSGGSTYYADSVKGRFTISRDNAKNTVYLQMNSLKAEDTAVSYCAKLYYPVSDQYDYYYWGPGTQVTVSS", "polyreactivity (PSR sort gate)": "low polyreactivity"},
      {"sequence": "QVQLVESGGGLVKAGGCLRISCAASGRIFGSYAMGWYREAPGIERELVASIRSGGRTKYADSVKGRFTISRDNAKKTVYLQMNSLKPEDTAVYYCDVPIQWDYGYWGQGTQVTVSS", "polyreactivity (PSR sort gate)": "low polyreactivity"},
      {"sequence": "QVQLVESGGGLVQAGGSLRLSCAASGIIFKSYTMGWYRQAPGKERELVAAINSSGDRTYYADSVKGRFTISRDNAKNTVYLQMNSLKPEDTAVYYCAAAPVKKSRFRYDYWGQGTQVTVSS", "polyreactivity (PSR sort gate)": "high polyreactivity"},
      {"sequence": "QVQLVESGGGLVQAGGSLRLSCASSGTFRLYAMGWYRQAPGKEREFVAAITSGGRTYADSVKGRFTISRDNAKNTVYLQMNSLKPEDTAVYYCAADAGRILFSGYDYWGQGTQVTVSS", "polyreactivity (PSR sort gate)": "low polyreactivity"},
      {"sequence": "QVQLVESGGGLVQAGCSLRLSCAASGSTFDNYAMGWYRQAPGKERELVAAISSSGTRTYYADSVKGRFTISRDNAKNTVYLQMNSLKPEDTAVYYCAAGGHYYSSPGYNYWGLGTQVTVSS", "polyreactivity (PSR sort gate)": "high polyreactivity"},
      {"sequence": "QVQLVESGGGLVQAGGSLRLSCAASGRTFHYYAMGWYRQAPGKERELVASISSGGSTHYADSVKGRFTISRDNANNTGYLQMNSLKPEDTAVYYCNRVDGYGPRNKVPYVTYGVYYWGQGTQVTVSS", "polyreactivity (PSR sort gate)": "low polyreactivity"},
      {"sequence": "QVQLVESGGGLVQAGGSLRLSCAASGRIYYSNDMRWYRQAPGKERELVAAISRRDGSTYYADSVKGRFTISRDNAKNTVYLQMNSLKPEDTAVYYCRYYSYRYGYWGQGTQVTVSS", "polyreactivity (PSR sort gate)": "high polyreactivity"},
      {"sequence": "QVQLVESGGGLVQAGGSLRLSCAASGRTFFSYVMGWYRPAPGKEREFVAAISRSGGNTYYADSVMGRFTISRDNAKNTVYLQMNSLKPEETAVYYCNKPQRILYDYWGHGTQVTVSS", "polyreactivity (PSR sort gate)": "high polyreactivity"},
      {"sequence": "QVQHVESGGGLVQAGGSLRLSCAASGRIFAFYAMGWYRQAPGKEREFVAAITWSGTNTYYADSVKGRFTISRDNAKNTVYLQMNSLKPEDTAVYYCNARQYYKYGYWGQGTQVTVSS", "polyreactivity (PSR sort gate)": "high polyreactivity"},
      {"sequence": "QVQLVESGGGLVQAGGSLRLSCAASGSIFRFYTMGWYRQAPGKERELVASITWTGGSTYYADSVKGRFTISRDNAKNTVYLQMNSLKPEDTAVYYCAARRYRRLVGRYDYWGQGTQVTVSS", "polyreactivity (PSR sort gate)": "low polyreactivity"},
      {"sequence": "QVHLVESGGALVQAGASLRLSCAASGFTYGLYSMGWYRQAPGKERELVAVISSSGGSTYYADSVKGRFTISRDNAKNTVYLQMNRLKPEDTAVYYCAAEWLDYKFDVSYDYWGQCTQVTVSS", "polyreactivity (PSR sort gate)": "low polyreactivity"},
      {"sequence": "QVQLVESGGGLVQAGGSLRLSCAATGRIFYSNAMGWYRQAPGKERELVAVIRRTGSTYYADSVKGRFTISRDNAKHTVYLQMNSLKPEDTAVYYCATRIPYGRGGNRYDYWGQGTQVTVSS", "polyreactivity (PSR sort gate)": "low polyreactivity"},
      {"sequence": "QVQLVESGGGLVQAGGSLRLSCAASGSNFSAYMGWYRQAPGKERELVADISSTGTTYYADSVKGRFTISRDNAKNTVYLQMNSLKPEDTAVYYCNADYFLQQEVTFDYWGQGSQVTVSS", "polyreactivity (PSR sort gate)": "high polyreactivity"}
    ]}
  ]
}
